The values below come from publication PMC10339645, “Kinetic characterization of annotated glycolytic enzymes present in cellulose-fermenting Clostridium thermocellum suggests different metabolic roles” (Biotechnology for Biofuels and Bioproducts, 2023).

Data set [1] concerns the target T1, PfkB (Acetivibrio thermocellus, UniProt A3DCE8).
T1 construct: gene Cthe_0389; N-terminal His6 tag with ~4-kDa linker (pRSET-A, plasmid pAHCT0389), tag kept; codon-optimized, E. coli T7 Shuffle; ~40 kDa monomer
As to the kind of experiment: coupled NADP+ reduction at […] nm, relative activity. Type of data set: biochemical. As to conditions: inhibitor; GTP as phosphate donor 2.24 mM; fructose 2.24 mM; 55 °C.

Data set [2] has as its target T2, PfkA (Acetivibrio thermocellus, UniProt A3DEW4).
T2 construct: N-terminal His6 tag with ~4-kDa linker (pRSET-A, plasmid pAHCT1261), tag kept; codon-optimized, E. coli T7 Shuffle; ~40 kDa monomer
As to the kind of experiment: coupled NADH oxidation at […] nm, relative activity. Type of data set: biochemical. As to conditions: inhibitor; 2 mM F6P, 2 mM ATP or GTP; NH4Cl; 55 °C.

Data set [3] addresses T2, PfkA. As to the kind of experiment: coupled NADH oxidation at […] nm, relative activity. The class given is biochemical. As to conditions: inhibitor; GTP as phosphate donor; 2.5 mM MgCl2; NH4Cl; 55 °C.
Data set [4] addresses T1, PfkB. Briefly: coupled NADP+ reduction at […] nm, relative activity. Type of data set: biochemical. As to conditions: inhibitor; fructose 2.24 mM, phosphate donor 2.24 mM; 55 °C.
Substrate in data set [5]: Nc1nc2c(ncn2[C@@H]2O[C@H](COP(=O)(O)OP(=O)(O)OP(=O)(O)O)[C@@H](O)[C@H]2O)c(=O)[nH]1
As to the kind of experiment: purified protein. Type of data set: biochemical, Acetivibrio thermocellus.

Substrate in data set [6]: Nc1ncnc2c1ncn2[C@@H]1O[C@H](COP(=O)(O)OP(=O)(O)OP(=O)(O)O)[C@@H](O)[C@H]1O
As to the kind of experiment: purified protein. Type of data set: biochemical, Acetivibrio thermocellus.

Where [7] appears, read: F6P 2 mM constant, 5 mM MgCl2, 2 mM NH4Cl, pH 7.5, 55 °C.
The mark [8] stands for this setting: F6P 2 mM constant, 5 mM MgCl2, 2 mM NH4Cl, pH 7.5, 55 °C, extrapolated beyond 2 mM ATP.
[9] abbreviates: fructose 2 mM constant, 5 mM MgCl2, pH 7.5, 55 °C.

As to `Nc1ncnc2c1ncn2[C@@H]1O[C@H](COP(=O)(O)O)[C@@H](O)[C@H]1O` [AMP], the “% relative activity at 2.24 mM” value on PfkB [1] came out at 38%.

As to `C=C(OP(=O)(O)O)C(=O)O` [PEP], on PfkA [2], the “relative activity at 2 mM” value is “addition of PEP or PPi caused a decrease in the activity of PfkA”.

Turning to `Nc1ncnc2c1ncn2[C@@H]1O[C@H](COP(=O)(O)OP(=O)(O)O)[C@@H](O)[C@H]1O` [ADP], at PfkB [1], the “% relative activity at 2.24 mM” value was 38%. As to `O=P(O)(O)OP(=O)(O)O` [PPi], the “% relative activity at 0.05 mM” value on PfkA [3] is listed as 21%. As for `OC[C@H]1OC(O)[C@H](O)[C@@H](O)[C@H]1O` (stereo partly shown) [galactose], at PfkB [4], the “relative activity at 2.24 mM” value is “Galactose also caused a noticeable decrease in activity”.

B1: PfkA (Acetivibrio thermocellus ATCC 27405) (protein)
chain: MSSVRTIGVLTSGGDAPGMNAAIRSVVRTGLYYGFKVLGIRKGFNGLINGDIEELTARSVGDIIHRGGTILQTARSPQFKTEEGLKKAMSMAKVFGIDALVVIGGDGSYRGARDISKLGLNVIGIPGTIDNDIGCTDYTIGFDTAMNTVQDAIDKIRDTAYSHERCSVLEVMGRHAGYIAVNVSISGGAEAVVLPEKPFDMDTDVIKPIIEGRNRGKKHYLVIVAEGGEGKAIEIAKEITEKTGIEARATILGHIQRGGSPTVYDRVMASQMGAKAVEVLMENKRNRVIVFKDNQIGDMDLEEALQVKKTISEDLIQLSKILAL
notes: N-terminal His6 tag with ~4-kDa linker (pRSET-A, plasmid pAHCT1261), tag kept; codon-optimized, E. coli T7 Shuffle; ~40 kDa monomer
With B1, in the data set “purified protein [5]” (setting [7]), the Km is 200 ± 20 µM and the Vmax was found to be 282 µmol/min/mg. In “purified protein [6]” (setting [8]), the Km was 2500 ± 960 µM and the Vmax was 430 µmol/min/mg.

B2: PfkB (Acetivibrio thermocellus ATCC 27405) (protein)
chain: MFDVVAVGELLIDFLPAGTNENGMPLFSSNPGGAPANVLAMLSKLGAKTAFIGKVGKDGFGQFLKATLDNAGIDTSNLLMSSSEMTTLAFVHLNEKGDRSFSFYRKHCADVSLDAGELDKDLLRTCHFLHFGAVSLTDEPSRTATLEAARIAKEAGAIISYDPNYRPALWSNEHEARKYMLKAVEYADLVKVSEEELWLLAESEDFSKGAHKLLAMGPSVVFVTCGEKGSYVFTGSCKANHCGYDVKVVDTTGAGDAFVGAMLWQLRGMSLEEISQICEQKWGELLAFSNAAGTIVATKKGAIPAMPDLDTINTFMRQFLEEK
notes: N-terminal His6 tag with ~4-kDa linker (pRSET-A, plasmid pAHCT0389), tag kept; codon-optimized, E. coli T7 Shuffle; ~40 kDa monomer
For the molecule B2, in “purified protein [5]” (setting [9]), the Km worked out at 200 ± 80 µM and the Vmax is 124 µmol/min/mg. In the data set “purified protein [6]” (setting [9]), the Km worked out at 400 ± 100 µM and the Vmax is 110 µmol/min/mg.

As a reminder, the Km is the concentration of substrate that gives half-maximal velocity. The term Vmax denotes the rate approached at saturating substrate.
